Measurements: article PMC10954691, “A structure-based designed small molecule depletes hRpn13^Pru and a select group of KEN box proteins” (Nature Communications, 2024)

Target: T1, hRpn13 Pru (1-150) (human, UniProt Q16186 1-150)
T1 construct: hRpn13 (proteasome subunit, gene ADRM1), Pru domain, residues 1-150; printed MW 17017.3 g/mol; also called hRpn13 Pru domain
Experiment: 19F NMR of the competing small molecule XL44; 25 or 50 uM hRpn2 (940-953) added to preincubated 50 uM XL44 and equimolar hRpn13 Pru; NMR buffer (20 mM sodium phosphate, 50 mM NaCl, 2 mM DTT, 10% DMSO-d6, pH 6.5), 10 °C
Details: both partners purified

T1 sequence (Q16186 1-150): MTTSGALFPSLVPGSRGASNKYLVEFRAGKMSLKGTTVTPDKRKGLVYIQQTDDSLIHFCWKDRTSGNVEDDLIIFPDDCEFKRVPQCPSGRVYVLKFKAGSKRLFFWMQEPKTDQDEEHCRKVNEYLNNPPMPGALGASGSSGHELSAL

B1: hRpn2 (940-953) (peptide, UniProt Q99460 940-953, looked up)
chain: QEPEPPEPFEYIDD
notes: hRpn2 (proteasome regulatory particle subunit), extreme C-terminus, residues 940-953; also called hRpn2 peptide; not shown: GST, N-terminal, cleaved
binding result: binds
